One substance from PMC12292525, “Identification, Cloning, and Functional Characterization of Carotenoid Cleavage Dioxygenase (CCD) from Olea europaea and Ipomoea nil” (Biology, 2025) can be followed below.

In this series the test system is CC1=C(/C=C/C(C)=C/C=C/C(C)=C/C=C/C=C(C)/C=C/C=C(\C)C=O)C(C)(C)CCC1. Nature of the series: beta-ionone formation, Michaelis-Menten nonlinear fit. It counts as biochemical, Olea europaea. The settings on record: optimal reaction conditions (pH 9.5 Gly-NaOH, 45 °C reported as optimum), O2 co-substrate. The source says: beta-ionone formation, Michaelis-Menten nonlinear fit on OeCCD1

As usually defined, the Km is the substrate concentration at which the rate is half of its maximum. The term Vmax denotes the top rate of the reaction or transport when substrate is in excess. A word on the kcat: it is the maximal rate divided by the concentration of active sites. For orientation: kcat/Km means the turnover number divided by the Michaelis constant. In the case of OeCCD1 (Olea europaea var. sylvestris), the Km is 820 µM, the Vmax turned out to be 2.3 µmol/min/mg, the catalytic constant (kcat) came out at 3.35 s⁻¹ and the kcat/Km was 4090 M⁻¹ s⁻¹.
